Assay results: patent publication US11357817B2, “Immunoproteasome inhibitor” (The Regents of the University of California, priority 2017, dated 2022)

Tests used:
[1] = molecular target: 20S Plasmodium proteasome (Pf20S), enriched from P. falciparum schizont lysate (Plasmodium falciparum)
[2] = molecular target: human constitutive 20S proteasome (human)
[3] = molecular target: β5 subunit of the S. cerevisiae 20S proteasome (PRE2) with M45I (M120I in the pro-protein), lineage 2 (Saccharomyces cerevisiae)
[4] = molecular target: β5 subunit of the S. cerevisiae 20S proteasome (PRE2), wild type (Saccharomyces cerevisiae)
[5] = molecular target: 20S Plasmodium proteasome (Pf20S), enriched from P. falciparum schizont lysate (Plasmodium falciparum); remark: listed apart in the source
[6] = molecular target: human constitutive 20S proteasome (human); remark: listed apart in the source
[7] = molecular target: human constitutive 20S proteasome (human); experiment: inactivation kinetics of c20S, Suc-LLVY-AMC activity assay, non-linear regression of Kobs
[8] = molecular target: 20S Plasmodium proteasome (Pf20S), enriched from P. falciparum schizont lysate (Plasmodium falciparum); experiment: inactivation kinetics of Pf20S, Suc-LLVY-AMC activity assay, non-linear regression of Kobs
[9] = molecular target: Succinyl-Leu-Leu-Val-Tyr-aminocoumarin (Artificial Sequence)

With Carmaphycin B (peptide) the Kinact [1] was 0.000192 s⁻¹, the Kinact/KI [1] was 864 M⁻¹ s⁻¹ and the Kinact [2] was 0.00168 s⁻¹. For the same substance, the Kinact/KI [2] was 4480 M⁻¹ s⁻¹, the average IC50 (uM) of yeast growth, resistant lineage 2 [3] was 52.7 µM and the average IC50 (uM) of yeast growth, parental GM strain [4] was 24.3 µM. The inhibition of β5, β1 and β2 activity at 150 nM inhibitor (% reduction of β5 activity) [5] was 45, the inhibition of β5, β1 and β2 activity at 150 nM inhibitor (% inhibition of β5 activity) [6] was 98 and the Ki [7] was 0.375 µM. The Ki [8] was 0.223 µM.

In the case of “20S Plasmodium proteasome (Pf20S), enriched from P. falciparum schizont lysate (enzyme)”, the hydrolysis of suc-LLVY-AMC (AMC release) (fold of the c20S rate) [9] is reported as under 2, the hydrolysis of z-LLE-AMC (AMC release) (fold lower than c20S) (z-LLE-AMC) is reported as 19 and the hydrolysis of z-LRR-AMC (AMC release) (fold of the c20S rate) (z-LRR-AMC) is reported as under 2.
